These results are taken from article PMC9968969.

For this data set, the system named is [H][C@@]12COP(=O)(O)O[C@@]1([H])[C@@H](O)[C@H](n1cnc3c(=O)[nH]c(N)nc31)O2. Nature of the data set: purified protein. The settings on record: […] MgCl2 in the reaction buffer catalytic site.

Take PDE5A (Homo sapiens): the Km (in general, the concentration of substrate that gives half-maximal velocity) stood at 3.87 ± 0.12 µM.
